From PMC7279889, “FMRP promotes RNA localization to neuronal projections through interactions between its RGG domain and G-quadruplex RNA sequences”

Key:
[1] = target: FMRP KH domains (two KH domains) (Mus musculus, UniProt P35922 222-315); experiment: fluorescence polarization; binding never detected; method and salt implied; FP: 10 mM Tris-HCl (pH not stated), 150 mM KCl or LiCl, 5% glycerol, 10 nM RNA, protein 2 nM-1 uM, 5 min at 25 C, read at 26-27 C; settings: protein: recombinant; tags: GST-SBP (N-terminal, pGEX6); label: 3' 6-FAM; G4 intramolecular (folded in KCl)
[2] = target: FMRP RGG domain (Mus musculus, UniProt P35922 478-614); experiment: fluorescence polarization; 150 mM KCl; FP: 10 mM Tris-HCl (pH not stated), 150 mM KCl or LiCl, 5% glycerol, 10 nM RNA, protein 2 nM-1 uM, 5 min at 25 C, read at 26-27 C; settings: protein: recombinant; tags: GST-SBP (N-terminal, pGEX6); label: 3' 6-FAM; G4 intramolecular (folded in KCl)

Binder: GGGAGGGAGGGAGGGUA (structured_RNA) [rG4]
- binding result [1]: no binding
- Kd [2]: ~30 nM
